Source: patent publication US20240252592A1 (TIANJIN INSTITUTE OF PHARMACEUTICAL RESEARCH, published 2024)
Numbered stars: 1 amine (or outer) side, 2 acyl side, 3 side chain; on linkers, the order of the positions; unused ones are H or OH. Square brackets hold non-standard residues; d marks the D form. Side chains are listed from the residue outwards. Ends that are not written are not given here. * marks the point of attachment. C18 diacid = O=C(O)CCCCCCCCCCCCCCCCC(=O)*; γGlu = O=C(O)[C@H](CCC(=O)[*:2])N[*:1]; AEEA = NCCOCCOCC(=O)O; Aib = CC(C)(N)C(=O)O

Key:
human GLP-1 receptor = human GLP-1 receptor (human, UniProt P43220 24-463); assay: cell-based or functional assay
GC receptor = assay: cell-based or functional assay

Binder	EC50 of GLP-1 receptor mediated cAMP production (human GLP-1 receptor) [nM]	EC50 of GC receptor mediated cAMP production (GC receptor) [nM]
H[Aib]QGTFTSDK([AEEA-AEEA-γGlu-C18 diacid])SKYLEERAAKEFIAWLEAGGPSSG-NH2 (not fully specified; printed as HAibQGTFTSDK**SKYLEERAAKEFIAWLEAGGPSSG-Amid) [Compound 27]	0.011	0.014
HXQGTFTSDKSKYLXERAAKEFIXWLEAGGPSSG (not fully specified; Lys 10 side chain -Ado-Ado-γE-OC17H32COOH; C-terminal amide) [Compound 36]	0.072	0.069
HXQGTFTSDKSKYLXERAAKEFIXWLEAGGPSSG (HELM PEPTIDE1{H.[Aib].Q.G.T.F.T.S.D.K.S.K.Y.L.E.E.R.A.A.K.E.F.I.A.W.L.E.A.G.G.P.S.S.G.[am]}|PEPTIDE2{[CCCCCCCCCCCCCCCC(=O)[*:2]].[gGlu].[gGlu]}$PEPTIDE1,PEPTIDE2,10:R3-3:R2$$$V2.0; N-terminus assumed; SMILES CCCCCCCCCCCCCCCC(=O)N[C@@H](CCC(=O)N[C@@H](CCC(=O)NCCCC[C@H](NC(=O)[C@H](CC(=O)O)NC(=O)[C@H](CO)NC(=O)[C@@H](NC(=O)[C@H](Cc1ccccc1)NC(=O)[C@@H](NC(=O)CNC(=O)[C@H](CCC(N)=O)NC(=O)C(C)(C)NC(=O)[C@@H](N)Cc1c[nH]cn1)[C@@H](C)O)[C@@H](C)O)C(=O)N[C@@H](CO)C(=O)N[C@@H](CCCCN)C(=O)N[C@@H](Cc1ccc(O)cc1)C(=O)N[C@@H](CC(C)C)C(=O)N[C@@H](CCC(=O)O)C(=O)N[C@@H](CCC(=O)O)C(=O)N[C@@H](CCCNC(=N)N)C(=O)N[C@@H](C)C(=O)N[C@@H](C)C(=O)N[C@@H](CCCCN)C(=O)N[C@@H](CCC(=O)O)C(=O)N[C@@H](Cc1ccccc1)C(=O)N[C@H](C(=O)N[C@@H](C)C(=O)N[C@@H](Cc1c[nH]c2ccccc12)C(=O)N[C@@H](CC(C)C)C(=O)N[C@@H](CCC(=O)O)C(=O)N[C@@H](C)C(=O)NCC(=O)NCC(=O)N1CCC[C@H]1C(=O)N[C@@H](CO)C(=O)N[C@@H](CO)C(=O)NCC(N)=O)[C@@H](C)CC)C(=O)O)C(=O)O) [Compound 1]	0.0654	0.0574
HXQGTFTSDKSKYLEERAAKEFVEWLLEAGGPSSG (HELM PEPTIDE1{H.[Aib].Q.G.T.F.T.S.D.K.S.K.Y.L.E.E.R.A.A.K.E.F.V.E.W.L.L.E.A.G.G.P.S.S.G.[am]}|PEPTIDE2{[CCCCCCCCCCCCCCCC(=O)[*:2]].[gGlu].[gGlu]}$PEPTIDE1,PEPTIDE2,10:R3-3:R2$$$V2.0; N-terminus assumed; SMILES CCCCCCCCCCCCCCCC(=O)N[C@@H](CCC(=O)N[C@@H](CCC(=O)NCCCC[C@H](NC(=O)[C@H](CC(=O)O)NC(=O)[C@H](CO)NC(=O)[C@@H](NC(=O)[C@H](Cc1ccccc1)NC(=O)[C@@H](NC(=O)CNC(=O)[C@H](CCC(N)=O)NC(=O)C(C)(C)NC(=O)[C@@H](N)Cc1c[nH]cn1)[C@@H](C)O)[C@@H](C)O)C(=O)N[C@@H](CO)C(=O)N[C@@H](CCCCN)C(=O)N[C@@H](Cc1ccc(O)cc1)C(=O)N[C@@H](CC(C)C)C(=O)N[C@@H](CCC(=O)O)C(=O)N[C@@H](CCC(=O)O)C(=O)N[C@@H](CCCNC(=N)N)C(=O)N[C@@H](C)C(=O)N[C@@H](C)C(=O)N[C@@H](CCCCN)C(=O)N[C@@H](CCC(=O)O)C(=O)N[C@@H](Cc1ccccc1)C(=O)N[C@H](C(=O)N[C@@H](CCC(=O)O)C(=O)N[C@@H](Cc1c[nH]c2ccccc12)C(=O)N[C@@H](CC(C)C)C(=O)N[C@@H](CC(C)C)C(=O)N[C@@H](CCC(=O)O)C(=O)N[C@@H](C)C(=O)NCC(=O)NCC(=O)N1CCC[C@H]1C(=O)N[C@@H](CO)C(=O)N[C@@H](CO)C(=O)NCC(N)=O)C(C)C)C(=O)O)C(=O)O) [Compound 25]	0.211	0.278
HXQGTFTSDYSKYLEEKRAKEFVEWLLEAGGPSSG (HELM PEPTIDE1{H.[Aib].Q.G.T.F.T.S.D.Y.S.K.Y.L.E.E.K.R.A.K.E.F.V.E.W.L.L.E.A.G.G.P.S.S.G.[am]}|PEPTIDE2{[CCCCCCCCCCCCCCCC(=O)[*:2]].[gGlu].[gGlu]}$PEPTIDE1,PEPTIDE2,20:R3-3:R2$$$V2.0; N-terminus assumed; SMILES CCCCCCCCCCCCCCCC(=O)N[C@@H](CCC(=O)N[C@@H](CCC(=O)NCCCC[C@H](NC(=O)[C@H](C)NC(=O)[C@H](CCCNC(=N)N)NC(=O)[C@H](CCCCN)NC(=O)[C@H](CCC(=O)O)NC(=O)[C@H](CCC(=O)O)NC(=O)[C@H](CC(C)C)NC(=O)[C@H](Cc1ccc(O)cc1)NC(=O)[C@H](CCCCN)NC(=O)[C@H](CO)NC(=O)[C@H](Cc1ccc(O)cc1)NC(=O)[C@H](CC(=O)O)NC(=O)[C@H](CO)NC(=O)[C@@H](NC(=O)[C@H](Cc1ccccc1)NC(=O)[C@@H](NC(=O)CNC(=O)[C@H](CCC(N)=O)NC(=O)C(C)(C)NC(=O)[C@@H](N)Cc1c[nH]cn1)[C@@H](C)O)[C@@H](C)O)C(=O)N[C@@H](CCC(=O)O)C(=O)N[C@@H](Cc1ccccc1)C(=O)N[C@H](C(=O)N[C@@H](CCC(=O)O)C(=O)N[C@@H](Cc1c[nH]c2ccccc12)C(=O)N[C@@H](CC(C)C)C(=O)N[C@@H](CC(C)C)C(=O)N[C@@H](CCC(=O)O)C(=O)N[C@@H](C)C(=O)NCC(=O)NCC(=O)N1CCC[C@H]1C(=O)N[C@@H](CO)C(=O)N[C@@H](CO)C(=O)NCC(N)=O)C(C)C)C(=O)O)C(=O)O) [Compound 26]	0.193	0.197
H[Aib]QGTFTSDK([AEEA-AEEA-γGlu-C18 diacid])SKYLDEKRAKEFIEWLEAGGPSSG-NH2 (N-terminus assumed; SMILES CC[C@H](C)[C@H](NC(=O)[C@H](Cc1ccccc1)NC(=O)[C@H](CCC(=O)O)NC(=O)[C@H](CCCCN)NC(=O)[C@H](C)NC(=O)[C@H](CCCNC(=N)N)NC(=O)[C@H](CCCCN)NC(=O)[C@H](CCC(=O)O)NC(=O)[C@H](CC(=O)O)NC(=O)[C@H](CC(C)C)NC(=O)[C@H](Cc1ccc(O)cc1)NC(=O)[C@H](CCCCN)NC(=O)[C@H](CO)NC(=O)[C@H](CCCCNC(=O)COCCOCCNC(=O)COCCOCCNC(=O)CC[C@H](NC(=O)CCCCCCCCCCCCCCCCC(=O)O)C(=O)O)NC(=O)[C@H](CC(=O)O)NC(=O)[C@H](CO)NC(=O)[C@@H](NC(=O)[C@H](Cc1ccccc1)NC(=O)[C@@H](NC(=O)CNC(=O)[C@H](CCC(N)=O)NC(=O)C(C)(C)NC(=O)[C@@H](N)Cc1c[nH]cn1)[C@@H](C)O)[C@@H](C)O)C(=O)N[C@@H](CCC(=O)O)C(=O)N[C@@H](Cc1c[nH]c2ccccc12)C(=O)N[C@@H](CC(C)C)C(=O)N[C@@H](CCC(=O)O)C(=O)N[C@@H](C)C(=O)NCC(=O)NCC(=O)N1CCC[C@H]1C(=O)N[C@@H](CO)C(=O)N[C@@H](CO)C(=O)NCC(N)=O) [Compound 23]	0.194	0.329
H[Aib]QGTFTSDYSKYLEERAAK([AEEA-AEEA-γGlu-C18 diacid])EFVEWLEGGPSSG-NH2 (not fully specified; printed as HAibQGTFTSDYSKYLEERAAK**EFVEWLEGGPSSG-Amid) [Compound 32]	1.01	0.077
